B1: unnamed (protein)
chain 1: QVQLVQSGAEVKKPGASVKVSCKASGYSFTSSWIHWVKQAPGQGLEWMGEINPGNVRTNYNENFRNKVTMTVDTSISTAYMELSRLRSDDTAVYYCTRVQFGEPYFDYWGQGTLVTVSS
chain 2: QIVLTQSPGTLSLSPGERATMTCTASSSVSSSYFHWYQQKPGQAPRLWIYRTSRLASGVPDRFSGSGSGTDFTLTISRLEPEDAATYYCHQFHRSPLTFGAGTKLEIK
B2: unnamed (protein)
chain 1: QVQLVQSGAEVKKPGASVKVSCKASGYSFTSNWIHWVKQAPGQGLEWMGEIYPGNSNTNYNENFRNKVTMTVDTSISTAYMELSRLRSDDTAVYYCTRVRYGEPWFDYWGQGTLVTVSS
chain 2: QIVLTQSPGTLSLSPGERATMTCTASSSVSSSYFHWYQQKPGQAPRLWIYRTSRLASGVPDRFSGSGSGTDFTLTISRLEPEDAATYYCHQFHRSPLTFGAGTKLEIK
B3: unnamed (protein)
chain 1: QVQLVQSGAEVKKPGASVKVSCKASGYTFTSNWIHWVKQAPGQGLEWMGEIYPGNSNTNYNENFRNKVTMTVDTSISTAYMELSRLRSDDTAVYYCTRVRYGEPWFDYWGQGTLVTVSS
chain 2: QIVLTQSPGTLSLSPGERATMTCTASSSVSSSYFHWYQQKPGQAPRLWIYRTSRLASGVPDRFSGSGSGTDFTLTISRLEPEDAATYYCHQFHRSPLTFGAGTKLEIK
B4: unnamed (protein)
chain 1: QVQLVQSGAEVKKPGASVKVSCKASGYSFTSSWIHWVKQAPGQGLEWMGEINPGNVRTNYNENFRNKVTMTVDTSISTAYMELSRLRSDDTAVYYCTRVSFGEPWFDYWGQGTLVTVSS
chain 2: QIVLTQSPGTLSLSPGERATMTCTASSSVSSSYFHWYQQKPGQAPRLWIYRTSRLASGVPDRFSGSGSGTDFTLTISRLEPEDAATYYCHQFHRSPLTFGAGTKLEIK
B5: unnamed (protein)
chain 1: QVQLVQSGAEVKKPGASVKVSCKASGYSFTSSWIHWVKQAPGQGLEWMGEINPGNVRTNYNENFRNKVTMTVDTSISTAYMELSRLRSDDTAVYYCTRQTYGEPYFDYWGQGTLVTVSS
chain 2: QIVLTQSPGTLSLSPGERATMTCTASSSVSSSYFHWYQQKPGQAPRLWIYRTSRLASGVPDRFSGSGSGTDFTLTISRLEPEDAATYYCHQFHRSPLTFGAGTKLEIK
B6: unnamed (protein)
chain 1: QVQLVQSGAEVKKPGASVKVSCKASGYSFTSSWIHWVKQAPGQGLEWMGEIYPGNSNTNYNENFRNKVTMTVDTSISTAYMELSRLRSDDTAVYYCTRLRYGEPYFDYWGQGTLVTVSS
chain 2: QIVLTQSPGTLSLSPGERATMTCTASSSVSSSYFHWYQQKPGQAPRLWIYRTSRLASGVPDRFSGSGSGTDFTLTISRLEPEDAATYYCHQFHRSPLTFGAGTKLEIK
B7: unnamed (protein)
chain 1: QVQLVQSGAEVKKPGASVKVSCKASGYSFTSSWIHWVKQAPGQGLEWMGEINPGNVRTNYNENFRNKVTMTVDTSISTAYMELSRLRSDDTAVYYCTRVVFGEPYFDYWGQGTLVTVSS
chain 2: QIVLTQSPGTLSLSPGERATMTCTASSSVSSSYFHWYQQKPGQAPRLWIYRTSRLASGVPDRFSGSGSGTDFTLTISRLEPEDAATYYCHQFHRSPLTFGAGTKLEIK
B8: unnamed (protein)
chain 1: QVQLVQSGAEVKKPGASVKVSCKASGYTFTSSWIHWVKQAPGQGLEWMGEIYPGNSNTNYNENFRNKVTMTVDTSISTAYMELSRLRSDDTAVYYCTRSRYGEPWFDYWGQGTLVTVSS
chain 2: QIVLTQSPGTLSLSPGERATMTCTASSSVSSSYFHWYQQKPGQAPRLWIYRTSRLASGVPDRFSGSGSGTDFTLTISRLEPEDAATYYCHQFHRSPLTFGAGTKLEIK
B9: unnamed (protein)
chain 1: QVQLVQSGAEVKKPGASVKVSCKASGYSFTSSWIHWVKQAPGQGLEWMGEINPGNVRTNYNENFRNKVTMTVDTSISTAYMELSRLRSDDTAVYYCTRVFYGEPYFDYWGQGTLVTVSS
chain 2: QIVLTQSPGTLSLSPGERATMTCTASSSVSSSYFHWYQQKPGQAPRLWIYRTSRLASGVPDRFSGSGSGTDFTLTISRLEPEDAATYYCHQFHRSPLTFGAGTKLEIK
B10: unnamed (protein)
chain 1: QVQLVQSGAEVKKPGASVKVSCKASGYTFTSNWIHWVKQAPGQGLEWMGEIYPGNSNTNYNENFRNKVTMTVDTSISTAYMELSRLRSDDTAVYYCTRVKYGEPYFDYWGQGTLVTVSS
chain 2: QIVLTQSPGTLSLSPGERATMTCTASSSVSSSYFHWYQQKPGQAPRLWIYRTSRLASGVPDRFSGSGSGTDFTLTISRLEPEDAATYYCHQFHRSPLTFGAGTKLEIK
B11: unnamed (protein)
chain 1: QVQLVQSGAEVKKPGASVKVSCKASGYTFTSNWIHWVKQAPGQGLEWMGEIYPGNSNTNYNENFRNKVTMTVDTSISTAYMELSRLRSDDTAVYYCTRVRFGEPWFDYWGQGTLVTVSS
chain 2: QIVLTQSPGTLSLSPGERATMTCTASSSVSSSYFHWYQQKPGQAPRLWIYRTSRLASGVPDRFSGSGSGTDFTLTISRLEPEDAATYYCHQFHRSPLTFGAGTKLEIK
B12: unnamed (protein)
chain 1: QVQLVQSGAEVKKPGASVKVSCKASGYSFTSSWIHWVKQAPGQGLEWMGEINPGNVRTNYNENFRNKVTMTVDTSISTAYMELSRLRSDDTAVYYCTRVRFGEPWFDYWGQGTLVTVSS
chain 2: QIVLTQSPGTLSLSPGERATMTCTASSSVSSSYFHWYQQKPGQAPRLWIYRTSRLASGVPDRFSGSGSGTDFTLTISRLEPEDAATYYCHQFHRSPLTFGAGTKLEIK
B13: unnamed (protein)
chain 1: QVQLVQSGAEVKKPGASVKVSCKASGYSFTSSWIHWVKQAPGQGLEWMGEINPGNVRTNYNENFRNKVTMTVDTSISTAYMELSRLRSDDTAVYYCTRMRYGEPWFDYWGQGTLVTVSS
chain 2: QIVLTQSPGTLSLSPGERATMTCTASSSVSSSYFHWYQQKPGQAPRLWIYRTSRLASGVPDRFSGSGSGTDFTLTISRLEPEDAATYYCHQFHRSPLTFGAGTKLEIK
B14: unnamed (protein)
chain 1: QVQLVQSGAEVKKPGASVKVSCKASGYSFTSSWIHWVKQAPGQGLEWMGEINPGNVRTNYNENFRNKVTMTVDTSISTAYMELSRLRSDDTAVYYCTRVTYGEPYFDYWGQGTLVTVSS
chain 2: QIVLTQSPGTLSLSPGERATMTCTASSSVSSSYFHWYQQKPGQAPRLWIYRTSRLASGVPDRFSGSGSGTDFTLTISRLEPEDAATYYCHQFHRSPLTFGAGTKLEIK
B15: unnamed (protein)
chain 1: QVQLVQSGAEVKKPGASVKVSCKASGYSFTSSWIHWVKQAPGQGLEWMGEINPGNVRTNYNENFRNKVTMTVDTSISTAYMELSRLRSDDTAVYYCTTVRYGEPYFDYWGQGTLVTVSS
chain 2: QIVLTQSPGTLSLSPGERATMTCTASSSVSSSYFHWYQQKPGQAPRLWIYRTSRLASGVPDRFSGSGSGTDFTLTISRLEPEDAATYYCHQFHRSPLTFGAGTKLEIK
B16: unnamed (protein)
chain 1: QVQLVQSGAEVKKPGASVKVSCKASGYSFTSSWIHWVKQAPGQGLEWMGEINPGNVRTNYNENFRNKVTMTVDTSISTAYMELSRLRSDDTAVYYCTRVSFGEPYFDYWGQGTLVTVSS
chain 2: QIVLTQSPGTLSLSPGERATMTCTASSSVSSSYFHWYQQKPGQAPRLWIYRTSRLASGVPDRFSGSGSGTDFTLTISRLEPEDAATYYCHQFHRSPLTFGAGTKLEIK
B17: unnamed (protein)
chain 1: QVQLVQSGAEVKKPGASVKVSCKASGYSFTSSWIHWVKQAPGQGLEWMGEINPGNVRTNYNENFRNKVTMTVDTSISTAYMELSRLRSDDTAVYYCTRVVYGEPYFDYWGQGTLVTVSS
chain 2: QIVLTQSPGTLSLSPGERATMTCTASSSVSSSYFHWYQQKPGQAPRLWIYRTSRLASGVPDRFSGSGSGTDFTLTISRLEPEDAATYYCHQFHRSPLTFGAGTKLEIK
B18: unnamed (protein)
chain 1: QVQLVQSGAEVKKPGASVKVSCKASGYSFTSSWIHWVKQAPGQGLEWMGEINPGNVRTNYNENFRNKVTMTVDTSISTAYMELSRLRSDDTAVYYCTRSRYGEPYFDYWGQGTLVTVSS
chain 2: QIVLTQSPGTLSLSPGERATMTCTASSSVSSSYFHWYQQKPGQAPRLWIYRTSRLASGVPDRFSGSGSGTDFTLTISRLEPEDAATYYCHQFHRSPLTFGAGTKLEIK
B19: unnamed (protein)
chain 1: QVQLVQSGAEVKKPGASVKVSCKASGYTFTSSWIHWVKQAPGQGLEWMGEIKPGNSNTNYNENFRNKVTMTVDTSISTAYMELSRLRSDDTAVYYCTRVSYGEPYFDYWGQGTLVTVSS
chain 2: QIVLTQSPGTLSLSPGERATMTCTASSSVSSSYFHWYQQKPGQAPRLWIYRTSRLASGVPDRFSGSGSGTDFTLTISRLEPEDAATYYCHQFHRSPLTFGAGTKLEIK

As usually defined, the Kd is the constant that tells how readily two partners part at equilibrium. High values mean a looser complex, low ones a tighter complex.

The target in this assay is IL36R. The experiment in a line: Kd (SPR).
Take B1: the Kd was 1.61 nM.
For B2, the Kd was found to be 3.35 nM.
Next, B3: 31.8 nM.
On to B4, for which the Kd was determined as 7.07 nM.
Next, B5: 274 nM; B6: 6.22 nM.
Next, B7: 1.54 nM; B8: 157 nM.
Next, B9: 1.13 nM.
On to B10, for which the Kd was 54.3 nM.
Next, B11: 46.1 nM; B12: 4.32 nM; B13: 68.3 nM.
Molecule B14 showed a Kd of 0.991 nM.
In turn, B15 had a dissociation constant Kd of 0.888 nM. The Kd values of the last two molecules are within 1.5-fold of each other.
Next, B16: 0.758 nM; B17: 0.649 nM; B18: 4.79 nM.
Next, B19: 138 nM.

Values taken from the FLAb antibody collection (doi:10.1101/2023.12.08.570889).
